We go through one substance from US20210155712A1.

The target in test [1] is human HER3 expressed on cells (human) (UniProt P21860). Nature of the test: flow cytometry, HEK293T HER3 O/E cells, 10 ug antibody, FITC channel. In general terms: Flow cytometry measures light scatter and fluorescence of single cells or particles in a stream.
Test [2] deals with recombinant human HER3 (human) (UniProt P21860). Nature of the test: BLI (Octet QK384), antibody on AHC sensors, His-tagged human HER3 in solution, absence of human NRG1.
For test [3], the target named is human HER3:human NRG1 complex (human) (UniProt Q02297). Nature of the test: BLI (Octet QK384), antibody on AHC sensors, human HER3-NRG1 complex (1:1 molar ratio) in solution, presence of human NRG1.

Where only a bound is given, the exact number is not on record here.

Sequence of anti-HER3 antibody clone LJM716 (VH): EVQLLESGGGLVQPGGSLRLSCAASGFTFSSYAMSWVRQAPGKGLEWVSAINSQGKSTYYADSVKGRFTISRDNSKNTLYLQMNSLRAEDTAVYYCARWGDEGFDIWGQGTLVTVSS
Sequence of anti-HER3 antibody clone LJM716 (VL): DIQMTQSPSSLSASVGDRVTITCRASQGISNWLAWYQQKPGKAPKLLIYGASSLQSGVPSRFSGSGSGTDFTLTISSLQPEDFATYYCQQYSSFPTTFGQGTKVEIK

Usually Kd stands for the concentration at which binding is half-saturated. For anti-HER3 antibody clone LJM716, the % Parent (HER3 positive) in test [1] turned out to be 74.4%. Moreover, the values for the dissociation constant (Kd) in test [2] and in test [3] were < 0.001 nM and 16.8 nM, respectively.
